The record followed here is patent publication US20100310509A1 (published 2010).

The chains are these.
B1: soluble human LIFR (leukemia inhibitory factor receptor) (receptor, UniProt P42702 45-833, looked up)
chain: QKKGAPHDLKCVTNNLQVWNCSWKAPSGTGRGTDYEVCIENRSRSCYQLEKTSIKIPALSHGDYEITINSLHDFGSSTSKFTLNEQNVSLIPDTPEILNLSADFSTSTLYLKWNDRGSVFPHRSNVIWEIKVLRKESMELVKLVTHNTTLNGKDTLHHWSWASDMPLECAIHFVEIRCYIDNLHFSGLEEWSDWSPVKNISWIPDSQTKVFPQDKVILVGSDITFCCVSQEKVLSALIGHTNCPLIHLDGENVAIKIRNISVSASSGTNVVFTTEDNIFGTVIFAGYPPDTPQQLNCETHDLKEIICSWNPGRVTALVGPRATSYTLVESFSGKYVRLKRAEAPTNESYQLLFQMLPNQEIYNFTLNAHNPLGRSQSTILVNITEKVYPHTPTSFKVKDINSTAVKLSWHLPGNFAKINFLCEIEIKKSNSVQEQRNVTIKGVENSSYLVALDKLNPYTLYTFRIRCSTETFWKWSKWSNKKQHLTTEASPSKGPDTWREWSSDGKNLIIYWKPLPINEANGKILSYNVSCSSDEETQSLSEIPDPQHKAEIRLDKNDYIISVVAKNSVGSSPPSKIASMEIPNDDLKIEQVVGMGKGILLTWHYDPNMTCDYVIKWCNSSRSEPCLMDWRKVPSNSTETVIESDEFRPGIRYNFFLYGCRNQGYQLLRSMIGYIEELAPIVAPNFTVEDTSADSILVKWEDIPVEELRGFLRGYLFYFGKGERDTSKMRVLESGRSDIKVKNITDISQKTLRIADLQGKTSYHLVLRAYTDGGVGPEKSMYVVTKENS
notes: extracellular domain; Bought; also called soluble LIFR

Test [1] has as its target T1, gp130 bound OSM-WT (gp130:OSM-WT) (human, UniProt P40189 23-619).
T1 construct: extracellular domain; Non-covalent complex formed on the plate: gp130 coated, then 200 nM OSM-WT; also called OSM-WT with gp130; not shown: N-terminal FLAG tag
T1 sequence 1: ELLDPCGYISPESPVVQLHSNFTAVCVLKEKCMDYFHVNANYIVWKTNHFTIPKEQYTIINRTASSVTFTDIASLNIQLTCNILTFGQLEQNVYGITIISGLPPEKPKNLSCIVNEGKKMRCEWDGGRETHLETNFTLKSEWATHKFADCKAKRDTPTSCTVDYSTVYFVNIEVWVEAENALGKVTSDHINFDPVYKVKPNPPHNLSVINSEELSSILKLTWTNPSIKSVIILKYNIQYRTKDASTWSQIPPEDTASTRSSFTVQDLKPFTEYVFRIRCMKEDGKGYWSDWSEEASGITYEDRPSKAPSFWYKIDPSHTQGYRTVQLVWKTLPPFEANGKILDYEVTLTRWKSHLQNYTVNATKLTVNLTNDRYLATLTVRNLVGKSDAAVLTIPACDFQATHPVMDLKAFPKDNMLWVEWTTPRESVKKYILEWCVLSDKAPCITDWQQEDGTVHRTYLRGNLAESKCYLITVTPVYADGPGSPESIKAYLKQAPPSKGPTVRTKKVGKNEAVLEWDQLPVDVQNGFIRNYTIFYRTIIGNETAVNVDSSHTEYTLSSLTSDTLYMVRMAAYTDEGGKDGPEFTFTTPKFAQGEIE
T1 sequence 2: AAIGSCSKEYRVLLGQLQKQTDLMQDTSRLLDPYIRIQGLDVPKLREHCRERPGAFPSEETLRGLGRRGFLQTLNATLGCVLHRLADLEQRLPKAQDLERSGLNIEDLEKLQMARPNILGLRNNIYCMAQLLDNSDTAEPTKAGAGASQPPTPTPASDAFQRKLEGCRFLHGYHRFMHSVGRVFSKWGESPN
Kind of test: ELISA, apparent KD (KD,App), gp130 coated, saturating cytokine, soluble LIFR titrated (with gp130). Here is the method:
(§1) FIG. 13 graphically depicts an ELISA analysis of soluble OSMR and soluble LIFR binding with LIF, OSM-WT, OSM-M1 and OSM-M2 or gp130 bound LIF (gp130:LIF), OSM-WT (gp130:OSM-WT), OSM-M1 (gp130:OSM-M1) and OSM-M2 (gp130:OSM-M2). Cytokines (LIF, OSM-WT, OSM-M1 or OSM-M2) immobilized on an ELISA plate in the absence (A,C) or presence (B,D) of gp130 were treated with various concentrations of soluble OSMR (A,B) or soluble LIFR (C,D). Equilibrium KD values were estimated using a non-linear curve fitting to the binding data using GraphPad Prism (Graph Pad Software. LaJolla, Calif.). In addition, see Table 3.
(§2) Enzyme-linked immunosorbent assay (ELISA): ELISA was used to evaluate the equilibrium binding strength of the interaction between the cytokines and their receptors. This technique has traditionally been used as a sensitive method to quantify the binding affinities between two interacting proteins. However, unlike in SPR, ELISA involves immobilization of the proteins on a flat plastic surface driven by hydrophobic and ionic interactions. This might cause some distortion in the 3 dimensional structure of immobilized protein which leads to inaccuracies in the estimation of dissociation constants. It is thus important to bear in mind that the values estimated using this technique are to be used only for comparison between species but not as true equilibrium binding constants. The results obtained using this technique will thus be presented as apparent equilibrium dissociation constants (K_{D,App}). For direct interaction studies, cytokines (LIF, OSM-WT, OSM-M1 or OSM-M2) were immobilized on the 96 well ELISA plate by incubating the wells with 200 μl of 5 nM cytokine solution in PBS, pH 7.4 overnight at 4° C. The wells were then blocked with blocking buffer (4% BSA in PBS) for 1 hour at room temperature. After washing with 250 μl of washing buffer (0.05% Tween-20 in PBS) 3 times, the cytokines were treated with a series of concentrations of soluble human LIFR (Catalog #249-LR-050/CF, R&D Systems, Minneapolis, Minn.) or OSMR (Catalog #4389-OR-050, R&D Systems, Minneapolis, Minn.) in 150 μl of blocking buffer for 2 hours.
For orientation: In an ELISA, binding on a coated surface is turned into a signal by an enzyme label.

Test [2] deals with B1. The description is as above. Here is the method: as §1, §2

In the case of B1, in test [1], the Kd turned out to be 70.3 nM.

B2: gp130 bound LIF (gp130:LIF) (other)
chain 1: ELLDPCGYISPESPVVQLHSNFTAVCVLKEKCMDYFHVNANYIVWKTNHFTIPKEQYTIINRTASSVTFTDIASLNIQLTCNILTFGQLEQNVYGITIISGLPPEKPKNLSCIVNEGKKMRCEWDGGRETHLETNFTLKSEWATHKFADCKAKRDTPTSCTVDYSTVYFVNIEVWVEAENALGKVTSDHINFDPVYKVKPNPPHNLSVINSEELSSILKLTWTNPSIKSVIILKYNIQYRTKDASTWSQIPPEDTASTRSSFTVQDLKPFTEYVFRIRCMKEDGKGYWSDWSEEASGITYEDRPSKAPSFWYKIDPSHTQGYRTVQLVWKTLPPFEANGKILDYEVTLTRWKSHLQNYTVNATKLTVNLTNDRYLATLTVRNLVGKSDAAVLTIPACDFQATHPVMDLKAFPKDNMLWVEWTTPRESVKKYILEWCVLSDKAPCITDWQQEDGTVHRTYLRGNLAESKCYLITVTPVYADGPGSPESIKAYLKQAPPSKGPTVRTKKVGKNEAVLEWDQLPVDVQNGFIRNYTIFYRTIIGNETAVNVDSSHTEYTLSSLTSDTLYMVRMAAYTDEGGKDGPEFTFTTPKFAQGEIE
chain 2: not shown
notes: Non-covalent complex formed on the plate: gp130 coated, then saturating cytokine; also called LIF with gp130
For B2, the Kd in test [2] came out at 10.3 nM.

B3: gp130 bound OSM-M2 (gp130:OSM-M2) (other, human)
chain 1: ELLDPCGYISPESPVVQLHSNFTAVCVLKEKCMDYFHVNANYIVWKTNHFTIPKEQYTIINRTASSVTFTDIASLNIQLTCNILTFGQLEQNVYGITIISGLPPEKPKNLSCIVNEGKKMRCEWDGGRETHLETNFTLKSEWATHKFADCKAKRDTPTSCTVDYSTVYFVNIEVWVEAENALGKVTSDHINFDPVYKVKPNPPHNLSVINSEELSSILKLTWTNPSIKSVIILKYNIQYRTKDASTWSQIPPEDTASTRSSFTVQDLKPFTEYVFRIRCMKEDGKGYWSDWSEEASGITYEDRPSKAPSFWYKIDPSHTQGYRTVQLVWKTLPPFEANGKILDYEVTLTRWKSHLQNYTVNATKLTVNLTNDRYLATLTVRNLVGKSDAAVLTIPACDFQATHPVMDLKAFPKDNMLWVEWTTPRESVKKYILEWCVLSDKAPCITDWQQEDGTVHRTYLRGNLAESKCYLITVTPVYADGPGSPESIKAYLKQAPPSKGPTVRTKKVGKNEAVLEWDQLPVDVQNGFIRNYTIFYRTIIGNETAVNVDSSHTEYTLSSLTSDTLYMVRMAAYTDEGGKDGPEFTFTTPKFAQGEIE
chain 2: AAIGSCSKEYRVLLGQLQKQTDLMQDTSRLLDPYIRIQGLDVPKLREHCRERPGAFPSEETLRGLGRRGFLQTLNATLGCVLHRLADLEQRLGGGNIEDLEKLQMARPNILGLRNNIYCMAQLLDNSDTAEPTKAGAGASQPPTPTPASDAFQRKLEGCRFLHGYHRFMHSVGRVFSKWGESPN
notes: extracellular domain; Non-covalent complex formed on the plate: gp130 coated, then 200 nM OSM-M2; also called OSM-M2 with gp130; not shown: N-terminal FLAG tag
For B3, the Kd in test [2] was 9.13 nM.

B4: gp130 bound OSM-M1 (gp130:OSM-M1) (other, human)
chain 1: ELLDPCGYISPESPVVQLHSNFTAVCVLKEKCMDYFHVNANYIVWKTNHFTIPKEQYTIINRTASSVTFTDIASLNIQLTCNILTFGQLEQNVYGITIISGLPPEKPKNLSCIVNEGKKMRCEWDGGRETHLETNFTLKSEWATHKFADCKAKRDTPTSCTVDYSTVYFVNIEVWVEAENALGKVTSDHINFDPVYKVKPNPPHNLSVINSEELSSILKLTWTNPSIKSVIILKYNIQYRTKDASTWSQIPPEDTASTRSSFTVQDLKPFTEYVFRIRCMKEDGKGYWSDWSEEASGITYEDRPSKAPSFWYKIDPSHTQGYRTVQLVWKTLPPFEANGKILDYEVTLTRWKSHLQNYTVNATKLTVNLTNDRYLATLTVRNLVGKSDAAVLTIPACDFQATHPVMDLKAFPKDNMLWVEWTTPRESVKKYILEWCVLSDKAPCITDWQQEDGTVHRTYLRGNLAESKCYLITVTPVYADGPGSPESIKAYLKQAPPSKGPTVRTKKVGKNEAVLEWDQLPVDVQNGFIRNYTIFYRTIIGNETAVNVDSSHTEYTLSSLTSDTLYMVRMAAYTDEGGKDGPEFTFTTPKFAQGEIE
chain 2: AAIGSCSKEYRVLLGQLQKQTDLMQDTSRLLDPYIRIQGLDVPKLREHCRERPGAFPSEETLRGLGRRGFLQTLNATLGCVLHRLADLEQRLGAPSGLNIEDLEKLQMARPNILGLRNNIYCMAQLLDNSDTAEPTKAGAGASQPPTPTPASDAFQRKLEGCRFLHGYHRFMHSVGRVFSKWGESPN
notes: extracellular domain; Non-covalent complex formed on the plate: gp130 coated, then 200 nM OSM-M1; also called OSM-M1 with gp130; not shown: N-terminal FLAG tag
Consider B4, for which the Kd in test [2] is 12.6 nM.
